This note sets out measurements from PMC4755027.

The target of the experiment is Human TLR4 on HEK-Blue reporter cells (human) (UniProt O00206). To be noted: scale: absorbance at 640 nm.
Chain of UniProt O00206 (O00206 24-839): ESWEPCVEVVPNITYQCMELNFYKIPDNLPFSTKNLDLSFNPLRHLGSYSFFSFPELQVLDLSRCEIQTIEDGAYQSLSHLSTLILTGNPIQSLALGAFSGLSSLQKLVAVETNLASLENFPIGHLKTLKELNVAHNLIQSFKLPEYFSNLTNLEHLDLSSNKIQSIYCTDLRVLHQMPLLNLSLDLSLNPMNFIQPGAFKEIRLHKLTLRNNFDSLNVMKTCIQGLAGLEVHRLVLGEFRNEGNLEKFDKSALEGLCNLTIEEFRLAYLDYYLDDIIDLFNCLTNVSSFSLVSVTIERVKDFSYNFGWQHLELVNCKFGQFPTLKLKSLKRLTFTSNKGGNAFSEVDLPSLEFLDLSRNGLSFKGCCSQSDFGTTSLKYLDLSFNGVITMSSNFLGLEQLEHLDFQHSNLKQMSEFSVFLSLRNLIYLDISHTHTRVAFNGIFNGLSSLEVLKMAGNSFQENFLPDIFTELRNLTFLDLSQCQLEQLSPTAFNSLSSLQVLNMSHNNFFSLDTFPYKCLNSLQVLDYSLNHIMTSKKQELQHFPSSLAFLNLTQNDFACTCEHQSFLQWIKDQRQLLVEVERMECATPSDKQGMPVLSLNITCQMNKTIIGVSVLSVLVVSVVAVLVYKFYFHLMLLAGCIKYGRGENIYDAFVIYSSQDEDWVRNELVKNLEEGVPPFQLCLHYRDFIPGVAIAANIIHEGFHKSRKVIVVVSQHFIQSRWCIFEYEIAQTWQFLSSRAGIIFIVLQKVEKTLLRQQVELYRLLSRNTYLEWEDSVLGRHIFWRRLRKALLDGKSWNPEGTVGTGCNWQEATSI

“Bovine annexin A2 heterotetramer (from UniProt P04272 1-339; P60902 1-97) (complex)” gave a secreted alkaline phosphatase of HEK-Blue human TLR4 reporter cells, absorbance at 640 nm normalized to media controls, mean of three experiments of 1.7.

“Human monomeric annexin A2 (from UniProt P07355 1-339) (natural protein)” came in with a secreted alkaline phosphatase of HEK-Blue human TLR4 reporter cells, absorbance at 640 nm normalized to media controls, mean of three experiments; significantly superior to equimolar ANXA2t of 2.7.
